Laboratory results reported in PMC4585971, “Functional Analyses of the Toxoplasma gondii DNA Gyrase Holoenzyme: A Janus Topoisomerase with Supercoiling and Decatenation Abilities” (Scientific Reports, 2015).

Tests used:
[1] = tested on: Nc1ncnc2c1ncn2[C@@H]1O[C@H](COP(=O)(O)OP(=O)(O)OP(=O)(O)O)[C@@H](O)[C@H]1O; assay: purified protein; conditions: Mg2+
[2] = biological target: T1, EcGyrB (Escherichia coli, UniProt P0AES6); assay: native PAGE, nucleotide-induced dimerisation ([…] AMPPNP); format: binding
T1 construct: gene gyrB

Row | Molecule | Km [1] [µM] | native PAGE, nucleotide-induced dimerisation (4 mM AMPPNP) [2]
1 | EcGyrB (Escherichia coli K-12) | 540 ± 50 | 
2 | Nc1ncnc2c1ncn2[C@@H]1O[C@H](CO[P@](=O)(O)O[P@](=O)(O)NP(=O)(O)O)[C@@H](O)[C@H]1O [AMPPNP] |  | This dimerisation pattern (monomer in the absence of nucleotide, dimer in the presence) is the same as for EcGyrB.
